From patent US20220324939A1 (Regeneron, published 2022)
Where a chain is given by its changes, count along the chain named.

B1: PN41746 (TCR, V domains shown)
V domain 1: AQTVTQSQPEMSVQEAETVTLSCTYDTSESDYYLFWYKQPPSRQMILVIRQEAYKQQNATENRFSVNFQKAAKSFSLKISDSQLGDAAMYFCAYRSATGNQFYFGTGTSLTVIP
V domain 2: DVKVTQSSRYLVKRTGEKVFLECVQDMDHENMFWYRQDPGLGLRLIYFSYDVKMKEKGDIPEGYSVSREKKERFSLILESASTNQTSMYLCASSLWGLNTEAFFGQGTRLTVV
notes: stained with anti-mouse TCR constant region H57-597; full-length chains on transfected CHO cells; also called TCR No. 28
B2: PN41656 (TCR, V domains shown)
V domain 1: AQKITQTQPGMFVQEKEAVTLDCTYDTSDPSYGLFWYKQPSSGEMIFLIYQGSYDQQNATEGRYSLNFQKARKSANLVISASQLGDSAMYFCAMRDLTTSGTYKYIFGTGTRLKVLA
V domain 2: B1 V domain 2 with L95F, W96G, L98W, N99G, T100Y, E101G, A102Y, F103T, Q106S
notes: stained with anti-mouse TCR constant region H57-597; full-length chains on transfected CHO cells; also called TCR No. 23
B3: PN41820 (TCR, V domains shown)
V domain 1: AQSVTQPGSHVSVSEGALVLLRCNYSSSVPPYLFWYVQYPNQGLQLLLKYTTGATLVKGINGFEAEFKKSETSFHLTKPSAHMSDAAEYFCAVSSGSARQLTFGSGTQLTVLP
V domain 2: B1 V domain 2 with L95H, W96D, G97R, L98W, N99D, T100Y, E101G, A102Y, F103T, Q106S
notes: stained with anti-mouse TCR constant region H57-597; full-length chains on transfected CHO cells; also called TCR No. 31
B4: PN41822 (TCR, V domains shown)
V domain 1: B1 V domain 1
V domain 2: B1 V domain 2 with G97A
notes: stained with anti-mouse TCR constant region H57-597; full-length chains on transfected CHO cells; also called TCR No. 32
B5: PN41690 (TCR, V domains shown)
V domain 1: B1 V domain 1 with T98I
V domain 2: B1 V domain 2 with L98V
notes: stained with anti-mouse TCR constant region H57-597; full-length chains on transfected CHO cells; also called TCR No. 24
B6: PN41869 (TCR, V domains shown)
V domain 1: B1 V domain 1 with A97S
V domain 2: B1 V domain 2 with L98T, T100E, E101K, A102L, Q106S, R109Q, T111S, V113L
notes: stained with anti-mouse TCR constant region H57-597; full-length chains on transfected CHO cells; also called TCR No. 38
B7: PN41494 (TCR, V domains shown)
V domain 1: B1 V domain 1
V domain 2: B1 V domain 2 with L98W, T100S, E101P, A102L, F103H, Q106N, V113T
notes: stained with anti-mouse TCR constant region H57-597; full-length chains on transfected CHO cells; also called TCR No. 2
B8: PN41573 (TCR, V domains shown)
V domain 1: B1 V domain 1
V domain 2: B1 V domain 2 with L98T, T100E, E101K, A102L, Q106S, R109Q, T111S, V113L
notes: stained with anti-mouse TCR constant region H57-597; full-length chains on transfected CHO cells; also called TCR No. 15
B9: PN41513 (TCR, V domains shown)
V domain 1: B1 V domain 1 with T98P
V domain 2: B1 V domain 2 with W96F, G97A, L98T, T100E, E101K, A102L, Q106S, R109Q, T111S, V113L
notes: stained with anti-mouse TCR constant region H57-597; full-length chains on transfected CHO cells; also called TCR No. 3
B10: PN41702 (TCR, V domains shown)
V domain 1: B1 V domain 1
V domain 2: B1 V domain 2 with G97A, L98V, T100E, E101K, A102L, Q106S, R109Q, T111S, V113L
notes: stained with anti-mouse TCR constant region H57-597; full-length chains on transfected CHO cells; also called TCR No. 25
B11: PN41532 (TCR, V domains shown)
V domain 1: B1 V domain 1 with T98E
V domain 2: B1 V domain 2
notes: stained with anti-mouse TCR constant region H57-597; full-length chains on transfected CHO cells; also called TCR No. 8
B12: PN41608 (TCR, V domains shown)
V domain 1: B1 V domain 1 with T98P
V domain 2: B1 V domain 2 with L95F, L98W
notes: stained with anti-mouse TCR constant region H57-597; full-length chains on transfected CHO cells; also called TCR No. 18
B13: PN41829 (TCR, V domains shown)
V domain 1: B1 V domain 1
V domain 2: B1 V domain 2 with W96F, G97A
notes: stained with anti-mouse TCR constant region H57-597; full-length chains on transfected CHO cells; also called TCR No. 33
B14: PN41475 (TCR, V domains shown)
V domain 1: B1 V domain 1 with E61V
V domain 2: B1 V domain 2 with L98S
notes: stained with anti-mouse TCR constant region H57-597; full-length chains on transfected CHO cells; also called TCR No. 1
B15: PN41852 (TCR, V domains shown)
V domain 1: B1 V domain 1 with T98L, Q101D, F102M, Y103R, T106A, S109R, I113K
V domain 2: B1 V domain 2 with G97A
notes: stained with anti-mouse TCR constant region H57-597; full-length chains on transfected CHO cells; also called TCR No. 35
B16: PN41565 (TCR, V domains shown)
V domain 1: B1 V domain 1 with A97P
V domain 2: B1 V domain 2 with G97A, L98M
notes: stained with anti-mouse TCR constant region H57-597; full-length chains on transfected CHO cells; also called TCR No. 13
B17: PN41607 (TCR, V domains shown)
V domain 1: B1 V domain 1 with T98S
V domain 2: B1 V domain 2 with L98T, T100E, E101K, A102L, Q106S, R109Q, T111S, V113L
notes: stained with anti-mouse TCR constant region H57-597; full-length chains on transfected CHO cells; also called TCR No. 17
B18: PN41617 (TCR, V domains shown)
V domain 1: B1 V domain 1 with T98S
V domain 2: B1 V domain 2 with L98M
notes: stained with anti-mouse TCR constant region H57-597; full-length chains on transfected CHO cells; also called TCR No. 20
B19: PN41577 (TCR, V domains shown)
V domain 1: B1 V domain 1 with T98P
V domain 2: B1 V domain 2 with L98T, T100E, E101K, A102L, Q106S, R109Q, T111S, V113L
notes: stained with anti-mouse TCR constant region H57-597; full-length chains on transfected CHO cells; also called TCR No. 16
B20: PN41518 (TCR, V domains shown)
V domain 1: B1 V domain 1 with T98P
V domain 2: B1 V domain 2 with G97A, L98T, T100E, E101K, A102L, Q106S, R109Q, T111S, V113L
notes: stained with anti-mouse TCR constant region H57-597; full-length chains on transfected CHO cells; also called TCR No. 5
B21: PN41523 (TCR, V domains shown)
V domain 1: B1 V domain 1 with T98P
V domain 2: B1 V domain 2
notes: stained with anti-mouse TCR constant region H57-597; full-length chains on transfected CHO cells; also called TCR No. 7
B22: PN41520 (TCR, V domains shown)
V domain 1: B1 V domain 1 with T98R
V domain 2: B1 V domain 2 with L98V, T100S, E101P, A102L, F103H, Q106N, V113T
notes: stained with anti-mouse TCR constant region H57-597; full-length chains on transfected CHO cells; also called TCR No. 6
B23: PN41868 (TCR, V domains shown)
V domain 1: B1 V domain 1
V domain 2: B1 V domain 2 with L98T, N99H, T100E, E101K, A102L, Q106S, R109Q, T111S, V113L
notes: stained with anti-mouse TCR constant region H57-597; full-length chains on transfected CHO cells; also called TCR No. 37
B24: PN41568 (TCR, V domains shown)
V domain 1: B1 V domain 1 with T98R
V domain 2: B1 V domain 2 with L98T, T100E, E101K, A102L, Q106S, R109Q, T111S, V113L
notes: stained with anti-mouse TCR constant region H57-597; full-length chains on transfected CHO cells; also called TCR No. 14
B25: PN41559 (TCR, V domains shown)
V domain 1: B1 V domain 1
V domain 2: B1 V domain 2 with L98W, N99G
notes: stained with anti-mouse TCR constant region H57-597; full-length chains on transfected CHO cells; also called TCR No. 12
B26: PN41654 (TCR, V domains shown)
V domain 1: GESVGLHLPTLSVQEGDNSIINCAYSNSASDYFIWYKQESGKGPQFIIDIRSNMDKRQGQRVTVLLNKTVKHLSLQIAATQPGDSAVYFCAEKRDNYGQNFVFGPGTRLSVLP
V domain 2: DVKVTQSSRYLVKRTGEKVFLECVQDMDHENMFWYRQDPGLGLRLIYFSYDVKMKEKGDIPEGYSVSREKKERFSLILESASTNQTSMYLCASSLYSYGYTFGSGTRLTVV
notes: stained with anti-mouse TCR constant region H57-597; full-length chains on transfected CHO cells; also called TCR No. 22

Target: T1, MAGE-A4 peptide on HLA-A*02:01 (human)
T1 peptide: KVLEHVVRV
Assay: multimer staining

Binder | binding result
B1 | recognises
B2 | recognises
B3 | recognises
B4 | recognises
B5 | recognises
B6 | recognises
B7 | recognises
B8 | recognises
B9 | recognises
B10 | recognises
B11 | recognises
B12 | recognises
B13 | recognises
B14 | recognises
B15 | recognises
B16 | recognises
B17 | recognises
B18 | recognises
B19 | recognises
B20 | recognises
B21 | recognises
B22 | recognises
B23 | recognises
B24 | recognises
B25 | recognises
B26 | recognises

Target: T2, soluble HLA-A2 (…) tetramer (human)
T2 construct: Bought tetramer reagent; also called MAGE-A4/HLA tetramer reagent; HLA-A02:01 MAGE-A4 tetramer
Assay: flow cytometry, HLA-A2 (…) tetramer staining of CHO cells transfected with the TCR
Protocol: Samples were then analyzed on an LSRFortessa X-20 (BD Biosciences, San Jose, Calif.).

Binder | % in Ag+ gate >250 MFI, >1%
B1 | 90.2%
B2 | 13.8%
B3 | 8.32%
B4 | 63.5%
B5 | 75.3%
B6 | 76.5%
B7 | 9.24%
B8 | 85.7%
B9 | 29.6%
B10 | 8.13%
B11 | 85.4%
B12 | 77%
B13 | 19.5%
B14 | 65.5%
B15 | 18%
B16 | 4.02%
B17 | 81%
B18 | 90.6%
B19 | 80%
B20 | 34.9%
B21 | 90.5%
B22 | 16.9%
B23 | 67.1%
B24 | 82.9%
B25 | 74.3%
B26 | 36.2%
